Where only a bound is given, the exact number is not on record here.

This test has as its target T1, human IL-2Rβ (CD122 protein, Fc Tag) (27-239) (human), P14784.
T1 chain: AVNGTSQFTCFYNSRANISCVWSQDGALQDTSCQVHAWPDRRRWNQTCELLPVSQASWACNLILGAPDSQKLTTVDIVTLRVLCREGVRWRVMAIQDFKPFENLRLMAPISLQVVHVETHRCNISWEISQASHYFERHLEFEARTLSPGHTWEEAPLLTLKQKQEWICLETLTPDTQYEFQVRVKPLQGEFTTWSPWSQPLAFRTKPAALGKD
Briefly: competitive binding ELISA (Example 28). On the technique in general: In an ELISA, binding on a coated surface is turned into a signal by an enzyme label.

The IC50 is the concentration needed to halve the response being measured. A high value points to weaker potency. As to CCYQAMVGDLCDFC (modifications not checked) [IL-2Rβ ligand SEQ ID NO: 83], the IC50 is less than 10 µM.

The values above are taken from patent US20220119492A1.
